Experiment [1] concerns the target T1, cTnI quality control product recombinant protein (human, UniProt P19429 2-210, limits assumed).
T1 construct: treated as the same molecule; also called cTnI antigen; cardiac troponin I
The experiment in a line: sandwich ELISA, antibody 12.346 ng/ml on anti-mouse IgG, cTnI 0.15 ug/ml, HRP second mAb. As for the experimental part: (§1) After mutation, the antibody activity is detected. 1 μg/ml of goat anti-mouse IgG is diluted with coating solution to coat a microwell plate, 100 μL per well, and overnight at 4 DEG C.; on the next day, it is washed twice with washing solution, and patted dry; blocking solution (20% BSA+80% PBS) is added, 120 μL per well, 37 DEG C., and 1 h, and patted dry; a diluted cTnI monoclonal antibody is added, 100 μL/well, 37 DEG C., and 60 min; liquid in the plate is shaken off, patted dry, and 20% of mouse negative blood is added for blocking, 120 μl per well, 37 DEG C., 1 h; liquid in the plate is shaken off, patted dry, a diluted cTnI antigen (0.15 μg/ml) is added, 100 μL per well, 37 DEG C., and 40 min; it is washed for 5 times with the washing solution, and patted dry; another strain of the cTnI monoclonal antibody (1:5K) labeled with HRP is added, 100 μL per well, 37 DEG C., and 30 min; color developing solution A (50 μL/well) is added, color developing solution B (50 μL/well) is added, 10 min; stop solution is added, 50 μL/well; and a OD value is read at 450 nm (refer to 630 nm) on a microplate reader.
For orientation: In an ELISA, binding on a coated surface is turned into a signal by an enzyme label.

In experiment [2] the target is T1, cTnI quality control product …. The experiment can be described thus: sandwich ELISA, antibody 37.037 ng/ml on anti-mouse IgG, cTnI 0.15 ug/ml, HRP second mAb. The protocol: as §1
The target is the same in experiment [3]. The experiment in a line: sandwich ELISA, antibody 4.115 ng/ml on anti-mouse IgG, cTnI 0.15 ug/ml, HRP second mAb. The protocol:
as §1

For experiment [4] the target is unchanged. The experiment can be described thus: sandwich ELISA, antibody 0.457 ng/ml on anti-mouse IgG, cTnI 0.15 ug/ml, HRP second mAb. As for the experimental part: as §1
The target is the same in experiment [5]. The experiment can be described thus: sandwich ELISA, antibody 1.372 ng/ml on anti-mouse IgG, cTnI 0.15 ug/ml, HRP second mAb. The protocol: as §1
For experiment [6] the target is unchanged. The experiment can be described thus: sandwich ELISA, antibody 0.000 ng/ml (blank of this series), cTnI 0.15 ug/ml, HRP second mAb. The protocol:
as §1

For experiment [7] the target is unchanged. The experiment can be described thus: AMC sensor, antibody immobilised, cTnI in solution. As for the experimental part:
Operating process: it is equilibrated in Buffer 1 (PBST) for 60 s, the antibody is immobilized in an antibody solution for 300 s, incubated in Buffer 2 (PBST) for 180 s, bound in antigen solution for 420 s, dissociated in the Buffer 2 for 1200 s, 10 mM of GLY solution with pH 1.69 and Buffer 3 are used for sensor regeneration, and data is output. KD represents an equilibrium dissociation constant, namely the affinity; Kon represents a binding rate; and Kd is represents a dissociation rate.

The values below come from patent US20220033484A1 (FAPON BIOTECH, published 2022).

Changes are numbered by the printed parent chain.

T1 sequence (P19429 2-210 limits assumed): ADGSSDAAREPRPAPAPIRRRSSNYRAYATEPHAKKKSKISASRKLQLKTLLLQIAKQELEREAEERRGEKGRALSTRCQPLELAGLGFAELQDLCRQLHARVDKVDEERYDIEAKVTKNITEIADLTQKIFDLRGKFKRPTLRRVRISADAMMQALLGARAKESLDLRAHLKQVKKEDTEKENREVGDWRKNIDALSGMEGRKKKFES

B1: Anti-cTnI-21C5 monoclonal antibody (recombinant) (antibody, mouse IgG2b, V domains shown)
VH: EVQLQQSGPELVKPGASVKMSCKASGYSFTLYVVHWVKQKPGQGLEWIGYIQPYLDGTRYNEKFKGKATLTVDKSSSTAFMELSSLTSEDSAVYYCARTGYGGYGLAWLAYWGQGTLVTVSA
VL: QAVVIQESALTTSPGETVTLTCRSSSGAATTSQYANWVQEKPDHLFTGLIGGSNNRAPGVPARFSGSLIGDKAALTITGAQTEDEAIYFCAIVYSNHWVFGGGTKLTVLG
notes: also called WT; Sample 1
As to B1, the “OD450 (ref. 630 nm)” value in experiment [1] was determined as 1.97 OD; in experiment [2], 2.16 OD; in experiment [3], 1.19 OD; in experiment [4] it was 0.365 OD; in experiment [5], 0.612 OD; in experiment [6] it was 0.13 OD. Moreover, the Kd (as a rule, the free concentration of one partner at which half of the binding sites on the other are occupied at equilibrium, for simple one-to-one binding) in experiment [7] amounted to 70.9 nM. Further, the koff (commonly the first-order rate constant of dissociation) in experiment [7] turned out to be 0.0034 s⁻¹. Moreover, the kon (usually the rate constant with which the complex forms) in experiment [7] came to 48000 M⁻¹ s⁻¹.

B2: Mutation 1-49 (antibody, V domains shown)
VH: B1 VH with S28T, V34L, Q52N, R59K, T99S, G103N
VL: B1 VL with S26T, A29V, N54Q, I92L, H97N
notes: Built as m8
Turning to B2, in experiment [7], the equilibrium dissociation constant (Kd) is 1.51 nM, the off-rate (koff) was 0.000134 s⁻¹ and the kon is 88400 M⁻¹ s⁻¹.

B3: Mutation 1-41 (antibody, V domains shown)
VH: B1 VH with S28T, V34I, Q52N, L55I, R59K, T99S, G103N
VL: B1 VL with S26T, A29V, Q33N, N54Q, I92L, H97Q
notes: Built as m8
On to B3, for which, in experiment [7], the Kd is 7.89 nM, the koff came out at 0.000647 s⁻¹ and the kon turned out to be 82000 M⁻¹ s⁻¹.

B4: Mutation 1-19 (antibody, V domains shown)
VH: B1 VH with S28T, L31I, V34L, Q52N, R59K, T99S, G103N
VL: B1 VL with S26T, A29V, Q33N, N54Q, I92L, H97Q
notes: Built as m8
As for B4, in experiment [7], the Kd was 4.81 nM, the off-rate (koff) was 0.000274 s⁻¹ and the kon came to 57000 M⁻¹ s⁻¹.

B5: Mutation 1-11 (antibody, V domains shown)
VH: B1 VH with S28T, V34I, Q52N, L55I, R59K, T99S
VL: B1 VL with S26T, A29V, Q33N, N54Q, I92L, H97N
notes: Built as m8
Consider B5, for which, in experiment [7], the Kd was determined as 4.23 nM, the koff stood at 0.000142 s⁻¹ and the kon is 33500 M⁻¹ s⁻¹.

B6: Mutation 1-17 (antibody, V domains shown)
VH: B1 VH with S28T, V34I, Q52N, R59K, T99S
VL: B1 VL with S26T, Q33N, N54Q, I92L, H97Q
notes: Built as m8
As to B6, in experiment [7], the Kd stood at 7.37 nM, the koff came to 0.000237 s⁻¹ and the kon was 32100 M⁻¹ s⁻¹.

B7: Mutation 2 (antibody, V domains shown)
VH: B1 VH with R59K, T99S
VL: B1 VL with S26T, A57V
notes: Built as m3, with this row's residues
Regarding B7, the “OD450 (ref. 630 nm)” value turned out to be 1.94 OD in experiment [1]; 2.1 OD in experiment [2]; 1.51 OD in experiment [3]; 0.211 OD in experiment [4]; 0.421 OD in experiment [5]; 0.117 OD in experiment [6].

B8: Mutation 1-55 (antibody, V domains shown)
VH: B1 VH with S28T, L31I, Q52Y, L55I, R59K, T99S
VL: B1 VL with S26T, A29V, N54Q, I92L, H97N
notes: Built as m8
B8: in experiment [7], the Kd is 4.31 nM, the koff came to 0.000239 s⁻¹ and the kon was 55400 M⁻¹ s⁻¹.

B9: Mutation 3 (antibody, V domains shown)
VH: B1 VH with S28T, R59H, T99S
VL: B1 VL with A57I, I92A
notes: as for B7
In the case of B9, the “OD450 (ref. 630 nm)” value in experiment [1] was 0.824 OD; in experiment [2], 1.58 OD; in experiment [3], 0.347 OD; in experiment [5], 0.15 OD.

B10: Mutation 1 (antibody, V domains shown)
VH: B1 VH with S28T, R59K, T99S
VL: B1 VL with S26T, I92L
notes: CDR mutant of WT
As to B10, the “OD450 (ref. 630 nm)” value stood at 2.24 OD in experiment [1]; 2.33 OD in experiment [2]; 1.89 OD in experiment [3]; 0.524 OD in experiment [4]; 0.94 OD in experiment [5]; 0.114 OD in experiment [6]. Besides, the Kd in experiment [7] stood at 4.2 nM. Further, the koff in experiment [7] worked out at 0.000214 s⁻¹. The kon in experiment [7] is 51000 M⁻¹ s⁻¹.
